Source: patent US20220273713A1, “METHOD OF INHIBITING OR ACTIVATING GAMMA DELTA T CELLS” (The University of Melbourne, priority 2019, published 2022)
Values joined by “and” are separate entries in the source; they are usually repeats but may differ in a detail not shown here. Identical values can stand only once. “Also recorded” adds a separate entry of the source.

Experiments:
Vγ9Vδ2 cells [1] = test: Flow cytometry: CD25 on Vγ9Vδ2 cells without phosphoantigen or APCs; format: cell-based, human; details: no addition of APCs or phosphoantigen; listed as 259
From the text: Vγ9Vδ2 cells were stained for CD3, Vδ2, CD25 and live dead viability dye as previously described and analysed on a Canto flow cytometer (BD). Cells were gated on lymphocytes, single cells, live cells, CD3+ Vδ2+, and activation determined based on CD25 expression.

Vγ9Vδ2 cells [2] = test: Luminex (Vγ9Vδ2): cytokine/chemokine secretion by pre-expanded Vγ9Vδ2 cells; format: cell-based, human; details: for IL-4 / IL-8 / GMCSF / ICAM-1 / IFNγ / IL-13 / IL-17A / MIP-1a / MIP-1b / TNFα / sE-selectin / sP-Selectin: 16 hrs, antibodies 10 μg/ml, Zoledronic acid 4 μM, HMBPP 0.5 ng/ml, duplicates, 0 set to 0.1;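 as to all read-outs here: Vγ9Vδ2 cells purified from PBMC, activated 48 h with CD3 and CD28 plus IL-2, expanded 14 days in IL-2, then thawed and rested overnight in IL-2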
Method: Briefly, Vγ9Vδ2 cells were isolated from 1 healthy donor (Red Cross Australia) and 1 cancer patient derived PBMC using TCRγ/δ+ T Cell Isolation Kit (Miltenyi). Cells were stimulated for 48 hours in TCRPMI supplemented with 100u/ml IL-2, CD3 (10 μg/ml) and CD28 (1 μg/ml). Cells were washed and grown for 14 days in TCRPMI supplemented with 100u/ml IL-2 at 37 degrees C. and 5% CO2, and then frozen down. […] Vγ9Vδ2 were defrosted and rested overnight in TCRPMI supplemented with 50u/ml IL-2 at 37 degrees C. and 5% CO2. […] All samples were run with appropriate controls and standards.

PBMCs = test: Luminex (PBMCs): cytokine/chemokine expression in freshly isolated PBMCs; format: cell-based, human
Method: Blood from a healthy donor (Red Cross Australia) was ficolled, PBMC layer collected, washed and 5×10^5 cells were treated with the indicated antibodies in duplicates @ 10 μg/ml in 500 ul TCRPMI supplemented with 100u/ml IL-2 and incubated at 37 degrees C. and 5% CO2 for 16 hrs. Supernatants were collected and submitted for Luminex Human 20-plex Inflammation panel analysis (EPX200-12185-901) to Crux Biolabs (Scoresby, VIC, Australia). This measures the following analytes: GM-CSF; ICAM-1, IFN-α; IFN-g, IL-1α, IL-1b, IL-10, IL-12p70, IL-13, IL-17A, IL-4, IL-8, IP-10, MCP-1, IL-6, MIP-1α, MIP-1b, sE-selectin, sP-Selectin, TNF-α. All samples were run with appropriate controls and standards. Treatment with antibody 259 was only performed in one well.

BTN2A2 = target: T1, BTN2A2 (Homo sapiens, UniProt Q8WVV5); test: Cross-reactivity of anti-BTN2A1 mAb to BTN2A2 (ELISA, transfected cells); format: binding
T1 sequence (Q8WVV5 33-265 limits assumed): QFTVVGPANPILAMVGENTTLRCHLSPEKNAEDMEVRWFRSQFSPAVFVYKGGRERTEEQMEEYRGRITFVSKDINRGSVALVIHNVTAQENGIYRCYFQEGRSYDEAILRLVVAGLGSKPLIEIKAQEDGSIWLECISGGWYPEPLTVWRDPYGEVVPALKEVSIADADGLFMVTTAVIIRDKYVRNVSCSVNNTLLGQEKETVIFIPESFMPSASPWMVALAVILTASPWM
Method: Purified recombinant proteins (0.2-20 μg/ml) were immobilized in microplate wells in PBS buffer overnight at 4° C. Non-specific binding was then blocked by incubation in PBS containing 0.05% tween 20 plus 5% skim milk powder or 0.5% (w/v) bovine serum albumin (BSA). The wells were then incubated for 60 minutes at room temperature in the presence of antibodies at 2-5 μg/mL in PBS/0.05% tween-20/2% skim milk powder or 0.5% BSA, followed by washing in PBS/0.05% tween-20. Plates were then incubated with HRP-labelled sheep anti-mouse IgG secondary antibody (Chemicon), or goat anti-mouse IgG secondary antibody (Millipore) followed by detection using 3,3′,5,5′-tetramethylbenzidine substrate (Sigma) and absorbance was measured at 450 nm using a plate reader.

LM-MEL-62 melanoma cells = test: In vitro killing assays (antibody titration, E:T titration), MTS; format: cell-based, human
Method: Vγ9Vδ2 cells were isolated from either healthy donor (Red Cross Australia) or cancer patient derived PBMC using TCRγ/δ+ T Cell Isolation Kit (Miltenyi). Patients provided informed consent and research was approved under HREC 14/425. […] For all assays LM-MEL-62 melanoma cells were plated out at 10,000 cells/well in 100 μl RF10 media in 96-well flat bottomed plates and left to adhere overnight at 37 degrees C. and 5% CO2. […] Cells were incubated at 37 degrees C. and 5% CO2. At day 3 Vγ9Vδ2 cells were washed out and 100 μl MTS reagent was added to wells for 1 hour as per manufacturers protocol (Promega, USA). Plates were subsequently read at 490 nm using a Spectrostar Nano microplate reader (BMG Labtech) to determine cell viability corrected for background absorbance.

[3] = test system: LM-MEL-62 and LM-MEL-75 melanoma cells; test: Tumor killing/inhibition assay: γδ T cells with melanoma cells 2:1, MTS and CD25; format: cell-based, human; details: γδ T cells : melanoma cells 2:1, three days, antibody 10 ug/ml
Method: In the following experiments, γδ T cells were enriched by MACS using PE-Cy7-conjugated anti-γδTCR followed by anti-phycoerythrin-mediated magnetic bead purification (Miltenyi Biotec). After enrichment CD3^+ Vδ2^+γδ T cells were further purified by sorting using an Aria III (BD). […] LM-MEL-62 and LM-MEL-75 melanoma cells were plated out 1×10^4 per well in a 96 well flat-bottom plate In RPMI1640 media supplemented with 10% FBS and left to adhere overnight. […] All conditions were repeated in triplicate. Cells were incubated at 37 degrees and on day 3 Vd2+ cells were acquired by flow cytometry. Live cells were gated and activation determined by analysis of CD25 expression. Melanoma cell viability was determined by MTS assay. MTS reagent was added to RPMI media at a 1:5 ratio and 100 ul added per well. Cells were incubated at 37 degrees for 30 minutes and the plate was read on a Spectrostar nano plate reader at 490 nm. […] Cultures were performed with γδ T cells and melanoma cells (LM-MEL-75 or LM-MEL-62) in a 2:1 ratio.

[4] = γδT cells from a healthy donor, listed as 259
[5] = γδT cells from patient 1 (melanoma patient), listed as 259
[6] = PBMCs from a healthy donor, antibodies 10 μg/ml, 16 hrs, duplicates, 259 one well

- cross-reactivity to BTN2A2 (BTN2A2): not cross-reactive
B1: antibody 259: agonistic anti-BTN2A1 antibody; VL SEQ ID NO: 156, VH SEQ ID NO: 160 (antibody, V domains shown)
VH: EVQLLESGGGLVQPGGSLRLSCAASGFTFSSYAMQWVRQAPGKGLEWVSRIGPSGGGTMYADSVKGRFTISRDNSKNTLYLQMNSLRAEDMAVYYCARDLGGLSVLFDYWGQGTLVTVSS
VL: QSELTQPPSASETPGQRVTISCSGSSSNIGSNTVSWFQQLPGSAPRLLIYNDHRRPSGVPDRFSGSKSGTSASLVISGLQSQDEADYYCSAWDDSLNGVVFGGGTKLTVL
modifications: amino acid sequence of the VH of antibody 259; amino acid sequence of the VL of antibody 259
- activation of Vγ9Vδ2 cells by CD25 upregulation (Vγ9Vδ2 cells [1]): higher activation potential; also recorded: can mimic phosphoantigen mediated activation to various degrees
- cytokine/chemokine secretion, in words (Vγ9Vδ2 cells [2]; across both donors): substantial increase in multiple analytes
- cytokine/chemokine secretion, in words (Vγ9Vδ2 cells [2]; healthy donor derived Vγ9Vδ2 cells, vs isotype (BM4)): no IL-4 was detected
- IL-4 (Vγ9Vδ2 cells [2]; γδT cells from a healthy donor): 0.1 pg/mL
- IL-8 (Vγ9Vδ2 cells [2]; γδT cells from a healthy donor): 0.1 pg/mL
- GMCSF (Vγ9Vδ2 cells [2]; [4]): 578.23 pg/mL and 608.66 pg/mL
- ICAM-1 (Vγ9Vδ2 cells [2]; [4]): 227.66 pg/mL and 226.25 pg/mL
- IFNγ (Vγ9Vδ2 cells [2]; [4]): 359.53 pg/mL and 412.2 pg/mL
- IL-13 (Vγ9Vδ2 cells [2]; [4]): 23.33 pg/mL and 31.31 pg/mL
- IL-17A (Vγ9Vδ2 cells [2]; [4]): 3.7 pg/mL and 4.17 pg/mL
- MIP-1a (Vγ9Vδ2 cells [2]; [4]): 301.77 pg/mL and 286.07 pg/mL
- MIP-1b (Vγ9Vδ2 cells [2]; [4]): 9757.6 pg/mL and 9064.66 pg/mL
- TNFα (Vγ9Vδ2 cells [2]; [4]): 451.81 pg/mL and 481.49 pg/mL
- sE-selectin (Vγ9Vδ2 cells [2]; [4]): 259.93 pg/mL and 300.24 pg/mL
- sP-Selectin (Vγ9Vδ2 cells [2]; [4]): 2291.35 pg/mL and 2223.07 pg/mL
- GMCSF (Vγ9Vδ2 cells [2]; [5]): 1135.87 pg/mL and 1151.41 pg/mL
- ICAM-1 (Vγ9Vδ2 cells [2]; [5]): 798.07 pg/mL and 755.13 pg/mL
- IFNγ (Vγ9Vδ2 cells [2]; [5]): 598.1 pg/mL and 740.33 pg/mL
- IL-4 (Vγ9Vδ2 cells [2]; [5]): 490.79 pg/mL and 389.47 pg/mL
- IL-8 (Vγ9Vδ2 cells [2]; [5]): 0.93 pg/mL and 1.06 pg/mL
- IL-13 (Vγ9Vδ2 cells [2]; [5]): 399.99 pg/mL and 461.27 pg/mL
- IL-17A (Vγ9Vδ2 cells [2]; [5]): 5.86 pg/mL and 6.55 pg/mL
- MIP-1a (Vγ9Vδ2 cells [2]; [5]): 317.76 pg/mL and 361.32 pg/mL
- MIP-1b (Vγ9Vδ2 cells [2]; [5]): 6921.27 pg/mL and 8238.42 pg/mL
- TNFα (Vγ9Vδ2 cells [2]; [5]): 1130.35 pg/mL and 1137.89 pg/mL
- sE-selectin (Vγ9Vδ2 cells [2]; [5]): 311.65 pg/mL and 368.09 pg/mL
- sP-Selectin (Vγ9Vδ2 cells [2]; [5]): 2170.46 pg/mL and 2424.08 pg/mL
- ICAM-1 (PBMCs; [6]): 1578.36 pg/mL
- IFNγ (PBMCs; [6]): 104.96 pg/mL
- IL-1α (PBMCs; [6]): 8.7 pg/mL
- IL-1β (PBMCs; [6]): 5.19 pg/mL
- IL-6 (PBMCs; [6]): 462.59 pg/mL
- IL-8 (PBMCs; [6]): 495.89 pg/mL
- IL-10 (PBMCs; [6]): 49.99 pg/mL
- IL-17A (PBMCs; [6]): 24.59 pg/mL
- IP-10 (PBMCs; [6]): 641.08 pg/mL
- MCP-1 (PBMCs; [6]): 1023.7 pg/mL
- MIP-1α (PBMCs; [6]): 131.71 pg/mL
- MIP-1β (PBMCs; [6]): 584.34 pg/mL
- sE-selectin (PBMCs; [6]): 327.64 pg/mL
- TNFα levels (PBMCs; full PBMC): no increase
- IL-8 (CXCL8), CCL2 (MCP-1) and IL-6 (PBMCs; full PBMC, vs isotype): up-regulated
- expression of IFNγ and sE-Selectin (PBMCs; full PBMC, vs isotype): increased expression
- tumour cell killing compared to treatment with zoledronic acid (LM-MEL-62 melanoma cells; E:T titration 2:1 to 1:16, 10 ug/ml antibody 259 or 4 uM zoledronate, both donors): killing occurred to a lesser extent
- induction of LM-MEL-62 cell killing, 259 compared with 253 (LM-MEL-62 melanoma cells; LM-MEL-62 with Vγ9Vδ2 cells 1:1, antibody titration, listed as 259): more potent inducer of cell killing than antibody 253; also recorded: lower viability rates of LM-MEL-62 cells when compared to antibody 253
- CD25 level of expression on γδ T cells in co-culture [3]: upregulated
